For assay [1], the target named is T1, recombinant His-Tag NRF2 truncation mutant Δ205-400 amino acids (Neh6/7 domains deleted) (UniProt Q16236 1-605, Δ205-400).
T1 sequence: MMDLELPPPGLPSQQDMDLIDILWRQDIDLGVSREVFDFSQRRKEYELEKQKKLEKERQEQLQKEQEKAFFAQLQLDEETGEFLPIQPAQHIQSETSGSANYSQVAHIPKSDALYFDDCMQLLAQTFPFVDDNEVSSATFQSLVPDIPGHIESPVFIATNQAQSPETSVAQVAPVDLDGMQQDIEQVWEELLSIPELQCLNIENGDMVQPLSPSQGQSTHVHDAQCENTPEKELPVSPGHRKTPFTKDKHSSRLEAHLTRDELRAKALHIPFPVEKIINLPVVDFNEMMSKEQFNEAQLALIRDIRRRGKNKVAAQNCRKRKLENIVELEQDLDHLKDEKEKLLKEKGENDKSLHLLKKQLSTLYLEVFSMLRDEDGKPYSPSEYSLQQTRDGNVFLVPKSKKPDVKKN
The experiment in a line: pull-down.

Assay [2] addresses T2, recombinant His-tagged NRF2, full length (UniProt Q16236 1-605).
T2 sequence: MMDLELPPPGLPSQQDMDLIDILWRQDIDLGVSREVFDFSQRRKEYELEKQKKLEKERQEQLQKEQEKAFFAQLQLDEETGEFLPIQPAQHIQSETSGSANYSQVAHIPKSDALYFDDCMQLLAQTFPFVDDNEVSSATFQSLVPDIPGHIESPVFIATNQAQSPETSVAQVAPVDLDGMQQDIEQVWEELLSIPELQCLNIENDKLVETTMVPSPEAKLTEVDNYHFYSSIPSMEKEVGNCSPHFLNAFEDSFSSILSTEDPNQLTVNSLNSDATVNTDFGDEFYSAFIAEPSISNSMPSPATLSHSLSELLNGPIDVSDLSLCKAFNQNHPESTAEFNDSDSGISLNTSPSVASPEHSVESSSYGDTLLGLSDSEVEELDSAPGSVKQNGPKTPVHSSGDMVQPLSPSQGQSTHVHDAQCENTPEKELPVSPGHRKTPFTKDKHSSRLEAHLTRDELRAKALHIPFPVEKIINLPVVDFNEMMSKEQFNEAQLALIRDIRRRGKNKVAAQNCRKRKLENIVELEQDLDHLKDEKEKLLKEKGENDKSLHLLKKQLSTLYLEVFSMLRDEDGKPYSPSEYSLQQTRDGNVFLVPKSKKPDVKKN
The assay can be described thus: MST.

B1: recombinant αB-crystallin (natural protein)
chain: MDIAIHHPWIRRPFFPFHSPSRLFDQFFGEHLLESDLFPTSTSLSPFYLRPPSFLRAPSWFDTGLSEMRLEKDRFSVNLDVKHFSPEELKVKVLGDVIEVHGKHEERQDEHGFISREFHRKYRIPADVDPLTITSSLSSDGVLTVNGPRKQVSGPERTIPITREEKPAVTAAPKK
As usually defined, the Kd is the constant that tells how readily two partners part at equilibrium. On to B1, for which the binding result in assay [1] was “binds”. The dissociation constant Kd in assay [2] was found to be 859 ± 70.1 nM.

The record behind these values is publication doi:10.1101/2023.10.26.564194 (bioRxiv, 2023).
